Results published in the nanobody polyreactivity screen of Harvey et al. (2022).

Assay: yeast display, Sf9 membrane polyspecificity reagent, FACS + sequencing; frameworks hold sequencing errors
Summary of the method: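 Using colony PCR, genes from sorted yeast display clones were amplified, then sequenced on MiSeq at 2 × 250 and filtered by CDR length. The clones had been stained with 10% biotinylated, detergent-solubilized Sf9 membrane reagent for 1 hour at 4 °C and sorted by FACS into low and high (top ~1%) gates on anti-HA and streptavidin fluorescence. Polyreactivity labels come from the gate of origin.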

Sequence | polyreactivity (PSR sort gate)
QVQLVESGGGLVQAGGSLRLSCAASGITFGRYALGWYRQAPGKERELVATITVNGGRTYYADSVKGRFTISRDNAKNTVYLQMNSLKPEDTAVYYCAAERRNSYVLLFKYNYWGQGTQVTVSS | low polyreactivity
QVQLVESGGGLVQAGGSLRLSCAASGITFGRYAMGWYRQAPGKERELVAAISWSGGSTYYADSVKGRFTISRDNAKNTVYLQMNSLKPEDTAVYYCATRIRTVAYNYWGQGTQVTVSS | high polyreactivity
QVQLVESGGGLVQAGGSLRLSCAASGITFGSKVMGWYRQPPGKEWEFVAVINWSTGSTYYADSVKGRFTISRDNAKNTVYLQMNSLKPEDTAVYYCNTDSGNEWTSYDYWGQGTQVTVSS | low polyreactivity
QVQLVESGGGLVQAGGSLRLSCAASGITFGSYAMGWYRQAPGKERELVAAIRWRGGNTYYADSVKGRFTISRDNAKNTVYLQMNSLKPEDTAVYYCAARRYGYRYDQPYSNDYWGQGTLVTVSS | low polyreactivity
QVQLVESGGGLVQAGGSLRLSCAASGITFGSYAMGWYRQAPGKERELVAAITSGGGTNYADSVKGRFTISRDNAKNTVYLQMNSLKPEDTAVYYCAARYYYLGTRYGYWGQGTQVTVSS | low polyreactivity
QVQLVESGGGLVQAGGSLRLSCAASGITFGVYGKGWYRQEPGKERELVAAISRTGGSTYYADSVKGRFTISRDNAKNTVYLQMNSLKPEDTAVYYCNARPVGRVIGDYWGQGTQVTVSS | high polyreactivity
QVQLVESGGGLVQAGGSLRLSCAASGITFGWYAMGWYRPAPGKERELVAAISWSGGTTYYADSVKGRFTISRDNAKNTVYLQMNSLKPEDTAVYYCAATWYYPTVYAGNYWGQGTQVTVSS | high polyreactivity
QVQLVESGGGLVQAGGSLRLSCAASGITFGYYAMGWSRQAPGKERELVAAINWRGGNTYYADSVKGRFTISRDNAKNTVYLQMNSLKPEDTAVYYCNALYKRYTDYDYWGQGSQVTVSS | high polyreactivity
QVQLVESGGGLVQAGGSLRLSCAASGITFGYYAMGWYRQAPGKERELVAAITWSGSSTYYADSVKGRFTISRDNAKNTVYLQMNSLKPEDTAVYYCAAEYSSHYAVWRGHSGYWGQGTQVTVSS | high polyreactivity
QVQLVESGGGLVQAGGSLRLSCAASGITFHRYDMGWYRQAPGKERELVADITWSGGSTYYADSVKGRFTISRDNAKNTVYLQMNSLKPEDTSVYYCAADASTYTYTPYDYWGQGTQVTVSS | low polyreactivity
QVQLVESGGGLVQAGGSLRLSCAASGITFHYKAMGWYIQAPGKERELVATIRRGGITKYADSVKGRFTISRDNAKNTVYLQMNSLKPEDTAVYYCAAGYYSHGAWFDHWGEGTQVTVSS | low polyreactivity
QVQLVESGGGLVQAGGSLRLSCAASGITFIGYAMGWYRQAPGKERELVAAITTNGGGTYYADSVKWRFTISRDNAKKTVYLQMNSLKPEDTAVYYCNAVKQRSSIFDYWGQGSQVTVSS | low polyreactivity
QVQLVESGGGLVQAGGSLRLSCAASGITFILNPMGWNRQAPGKEREFVAAISTSGGNTYYADSVKGRFTISRDYAKYTVYLEMNSLKPEDTAVYYCNADWGVVYISYSPEYDYWGHGTQVTVSS | low polyreactivity
QVQLVESGGGLVQAGGSLRLSCAASGITFINYDMGWYRQAPGKERELVAAISQIGTSTYYADSVKGRCTISRDNAKNTVYLQMNSLKPEDTAVYYCNARYISTGFRYNYWGQGTQVTVSS | high polyreactivity
QVQLVESGGGLVQAGGSLRLSCAASGITFISYAMGWYRQAPGKERELVAGITSDDSTSYADSVKGRFTISRDNAKNTVYLQMNSVKPEDTAVYYCAARSYTLRTSTGRLYRYYYWGQGTQVTVSS | high polyreactivity
QVQLVESGGGLVQAGGSLRLSCAASGITFIVNTMGWYRQAPGKEREFVATISANSDGTYYADSVKGRFTISRDNAKNTVYLQMNSLKPEDTAVYYWGQGTQVTVSS | low polyreactivity
QVQLVESGGGLVQAGGSLRLSCAASGITFIYYAMGWYRQAPGKEREFVAAITFRDGDTYYADSVKGRFTISRDNAKNTVYLQMNSLKPEDTAVYYCADTYWVYYFYPGYDYWGQGTQVTVSS | low polyreactivity
QVQLVESGGGLVQAGGSLRLSCAASGITFIYYTMGWYRQEPGKERELVAAISSRGSSTYYADSVKGRFTISRDNAKNTVYLQMNSLKPEDTAVYYCAAVQYRYGGMDYWGQGTQVTVSS | high polyreactivity
QVQLVESGGGLVQAGGSLRLSCAASGITFKAYAMGWYRQAPGKDRELVAAINTSGARTYYADSVKGRFTISRDNAKNTVYLQMNSLKPEDTAVYYCNARLHQQEGDYWGQGTQVTVSS | low polyreactivity
QVQLVESGGGLVQAGGSLRLSCAASGITFKAYVMGWYRQAPGKERELVAAITRSGGRTYYADSVKGRFTISRDNAKNTVFLQMNSLKPEDTAVYYCAADGPHHGDGYWGQGTQVTVSS | high polyreactivity
QVQLVESGGGLVQAGGSLRLSCAASGITFKFYAMGWYRQAPGKERELVAAIDSRGGSTYYADSVKGRFTISRDNAKNTVYLQMNSLKPEDTSVYYCNKVGRRKLDYWGQGTQVTVSS | high polyreactivity

Sequence | polyreactivity (PSR sort gate)
QVQLVESGGGLVQAGGSLRLSCAASGITFKGNAMGWYRQAPGKERELVAVITWSGGSTYYADSVKGRFTISRDNAKNTVYLQMNSLKPEDTAVYYCAKPWIYGDSQYDYWGQGTQVTVSS | low polyreactivity
QVQLVESGGGLVQAGGSLRLSCAASGITFKSYAMGWYRQAPGKERELVAAIARRGGSTYYADSVKGRFTISRDNAKNTVYLQMNSLKPEDTAVYYCAADSGREPKGPSRLTYWGQGTQVTVSS | high polyreactivity
QVQLVESGGGLVQAGGSLRLSCAASGITFKSYAMGWYRQAPGKERELVAAISRRGGSTYYADSVKGRFTISRDNAKNTVYLQMNSLKPEDTAVYYCAADSGREPKGPSRLTYWGQGTQVTVSS | high polyreactivity
QVQLVESGGGLVQAGGSLRLSCAASGITFKWYAMGWYRQAPGKERELVAAISWSTGSTYYADSVKGRFTISRDNAKNTVYLPMNSLKPEDTAVYYCAARVKRPQTGYDRRYGYWGQGTQVTVSS | high polyreactivity
QVQLVESGGGLVQAGGSLRLSCAASGITFKYNAMGWYRPAPGKERELVAAISSGGNTYYADSVKGRFTISRDNAKNTVYLQMNSLKPEDTAVYYCAAPSYDTLWHDYWGQGTQVTVSS | low polyreactivity
QVQLVESGGGLVQAGGSLRLSCAASGITFKYYAMGWYRQAPGKERELVAAITRGGSTYYADSVKGRFTISRDNAKNTVYLQMNSLKPEDTAVYYCNKARTYELYWGQGTQVTVSS | high polyreactivity
QVQLVESGGGLVQAGGSLRLSCAASGITFKYYVMGWYRQAPGKEREFVAAISWGGGSTYYADSVKGRFTISRDNAKNTVYLQMNSLKPEDTAVYYCAARKGYYTHVQIGYRQSMDYWGQGTQVTVSS | high polyreactivity
QVQLVESGGGLVQAGGSLRLSCAASGITFLDYTMGWYRQAPGKERELVATISKSGGSTYYADSVKGRFTISRDNAKNTVYLQMNSLKPEDTAVYYCAARGFTFWRYYYWGQGTQVTVSS | high polyreactivity
QVQLVESGGGLVQAGGSLRLSCAASGITFLFYAMGWYRQAPGKERELVAAISRSGGSTYYADSVKGRFTISRDNAKNTVYLQMNSLKPEDTAVYYCAARSKDGGGPMYYWGQGTQVTVSS | high polyreactivity
QVQLVESGGGLVQAGGSLRLSCAASGITFLPYAMGWYRQAPGKERELVAAISWRGGRTYYADSVKGRFTISRDNAKNTVYLQMNSLKPEDTAVYYCAAVLVRKSGITYDYWGQGTQVTVSS | high polyreactivity
QVQLVESGGGLVQAGGSLRLSCAASGITFNGYTMGWYRQAPGKEREFVAAITRRGGSTYYADSVKGRFTISRDNAKNTVYLQMNSLKPEDTAVYYCARVTRLGGGDYDYWGQGTQVTVSS | high polyreactivity
QVQLVESGGGLVQAGGSLRLSCAASGITFNIYVMGWYRQAPGKERELVAAITDSGGTTYYADSVKGRFTISRDNAKNTVYLQMNSLKPEDTAVYYCAAEPFYSWWWWGDYWGQGTQVTVSS | high polyreactivity
QVQLVESGGGLVQAGGSLRLSCAASGITFNKNAMGWYRQAPGKEREFVAAITRRGGSTYYADSVKGRFTISRDNAKNTVYLQMNSLKPEDTAVYYCAARPYWSYRRYDYWGQGTQVTVSS | high polyreactivity
QVQLVESGGGLVQAGGSLRLSCAASGITFNPYVMGWYRQAPGTERELVAVITSGGSTNYADSVKGRFTISRDNAKNTVYLQMNSLKPEDTAVYYCNVDRRPYYVWRVTYDYWGQGTQVTVSS | low polyreactivity
QVQLVESGGGLVQAGGSLRLSCAASGITFNSYTMGWYRQAPGKERELVAAISDNGGRTFYADSVKGRFTISRDNAKNTVYLQMNSLKPEDTAVYYCAAVVYSEYYYWGQGTQVTVSS | low polyreactivity
QVQLVESGGGLVQAGGSLRLSCAASGITFNYYAKGSYRQAPGKERELVATINRSGGTTYYADSVKGRFTISRDNAKNTVYLQMNSLKPAVTAVYYCGALSKTRGGYWGQGTQVTVSS | high polyreactivity
QVQLVESGGGLVQAGGSLRLSCAASGITFPANARGWYRQAPGKERELVADISESDGSTYYADSVKGRFTISRDNAKNTVFLQMNSLKPEDTAVYYCAADGTSGTRSDYWGQCTQVTVSS | low polyreactivity
QVQLVESGGGLVQAGGSLRLSCAASGITFPGNAMGWYIQAPGKERELVAVISSGTSTNYADSVKGRFTISRDNAMNTVYLQMNSLKPEDTAVYYCATSLYYYPYYYWGQGTQVTVSS | low polyreactivity
QVQLVESGGGLVQAGGSLRLSCAASGITFPGTVMGWYRQAPGKERELVAAISTSGGSTYYADSVKGRFTISRDNAKNTVYLQMNSLKPEDTAVYYCARQYIRSSYGYWGQGTQVTVSS | low polyreactivity
QVQLVESGGGLVQAGGSLRLSCAASGITFPLYAMGWYRQAPGKETELVASITRGGTTNYADSVKGRFTISRDNAKNTVYLQMNRLKPEDTAVYYCAAEVTRDRGFDYWGQGTQVTVSS | low polyreactivity
